Laboratory results from patent US20220306765A1 (SUZHOU TRANSCENTA THERAPEUTICS, published 2022).

Tests used:
human FcγRIIIa-V176 [1] = target: T1, human FcγRIIIa-V176 (human, UniProt P08637 17-208); assay: cell-based or functional assay
[2] = target: T2, Human FcRn (FCGRT&B2M) Protein (human, UniProt P55899 24-297; P61769 21-119); assay: ELISA at pH 6.0: antibody immobilised, biotinylated FcRn titrated, Streptavidin-HRP; the concentration axis is that of FcRn
T2 construct: also called huFcRn-biotin
Procedure: FcRn binding was evaluated by an ELISA method. […] Biotinylated FcRn was serial diluted in a pH6.0 dilution buffer (1 μg/ml˜0.0002 μg/ml) and then added for 1 h incubation. Next, Streptavidin-HRP and TMB were added for detection of binding at OD450 nm.

FcγRIV-his = target: T3, FcγRIV-his (Mus musculus (Mouse), UniProt A0A0B4J1G0 21-203); assay: ELISA: antibody coated at 1 ug/ml, Mouse FcγRIV-his titrated, anti-His-HRP; the concentration is that of the receptor
T3 sequence: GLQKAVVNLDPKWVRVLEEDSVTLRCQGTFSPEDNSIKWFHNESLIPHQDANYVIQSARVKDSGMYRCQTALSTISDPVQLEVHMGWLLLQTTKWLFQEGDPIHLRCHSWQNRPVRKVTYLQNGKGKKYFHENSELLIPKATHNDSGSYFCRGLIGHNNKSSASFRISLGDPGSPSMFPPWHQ
Procedure: (§1) After blocking and washing, the serial diluted (5 g/ml˜0.02 μg/ml) FcγRs labeled with His-tag were added and incubated for 1 h. Then anti-His-HRP and TMB were added for detection of FcγR binding at OD450 nm.

human FcγRIIIa-V176 [3] = target: T1, human FcγRIIIa-V176; assay: ELISA, antibody coated, His-tagged FcγR in solution
Procedure: as §1

human FcγRIIIa-F176 = target: T4, human FcγRIIIa-F176 (human, UniProt P08637 17-208); assay: as above
T4 construct: His-tagged (ELISA); also called hFcγRIIIA (F176)-his
Procedure: as §1

human FcγRIIIa-V176 [4] = target: T1, human FcγRIIIa-V176; assay: ELISA: antibody coated at 1 ug/ml, hFcγRIIIA(V176)-his titrated, anti-His-HRP; the concentration is that of the receptor
Procedure: as §1

human C1q = human C1q (human, UniProt P02745 23-245; P02746 28-253; P02747 29-245); assay: ELISA: antibody immobilised, human C1q titrated, anti-C1q-HRP; the concentration axis is that of C1q
Procedure: C1q binding assay was taken following method. Two antibodies were immobilized on the plate. […] Then anti-C1q-HRP and TMB were added for detection at OD450 nm.

Cyno FcγRIII-his = target: T5, Cyno FcγRIII-his (cyno, UniProt Q8SPW2 17-208); assay: ELISA: antibody coated, Cyno FcγRIII-his titrated, anti-His-HRP; the concentration axis is that of the receptor
T5 construct: also called cyno FcγRs
Procedure: as §1

mouse FcγRIIB-his = target: T6, mouse FcγRIIB-his (mouse, UniProt P08101 30-207, limits assumed); assay: ELISA: antibody coated at 1 ug/ml, Mouse FcγRIIB-his titrated, anti-His-HRP; the concentration axis is that of the receptor
T6 sequence (looked up): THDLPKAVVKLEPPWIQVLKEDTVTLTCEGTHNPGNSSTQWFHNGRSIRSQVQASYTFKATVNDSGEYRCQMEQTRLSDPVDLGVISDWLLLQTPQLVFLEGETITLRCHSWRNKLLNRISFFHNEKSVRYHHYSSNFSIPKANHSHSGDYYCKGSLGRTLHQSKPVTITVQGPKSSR
Procedure: as §1

human FcγRI = target: T7, human FcγRI (human, UniProt P12314 16-288); assay: ELISA: antibody coated at 1 ug/ml, hFcγRI-his titrated, anti-His-HRP; the concentration axis is that of the receptor
T7 construct: also called hFcγRI-his
Procedure: as §1

mouse FcγRI-his = target: T8, mouse FcγRI-his (mouse, UniProt P26151 25-297); assay: ELISA: antibody coated at 1 ug/ml, Mouse FcγRI-his titrated, anti-His-HRP; the concentration axis is that of the receptor
T8 sequence (looked up): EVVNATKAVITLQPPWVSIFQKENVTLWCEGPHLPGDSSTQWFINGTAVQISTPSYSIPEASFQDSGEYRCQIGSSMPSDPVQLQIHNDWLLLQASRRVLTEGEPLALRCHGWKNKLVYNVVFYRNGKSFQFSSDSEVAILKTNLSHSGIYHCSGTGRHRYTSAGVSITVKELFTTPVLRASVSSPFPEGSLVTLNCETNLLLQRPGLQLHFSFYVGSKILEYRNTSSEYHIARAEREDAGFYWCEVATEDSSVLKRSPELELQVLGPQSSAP
Procedure: as §1

human CLDN18.2 [5] = target: T9, human CLDN18.2 (human); assay: KinExA, NUGC4 cells; binds: Kd on NUGC4 gastric cells (endogenous CLDN18.2), affinity assay, not FACS EC50
T9 construct: also called hCLDN18.2; Claudin-18 splice variant 2

human CLDN18.2 [6] = target: T9, human CLDN18.2; assay: cell-based or functional assay
human CLDN18.2 [7] = target: T9, human CLDN18.2; assay: flow cytometry on BxPC-3-CLDN18.2 cells (y axis printed as Luminescence); unit taken from the concentration axis
human CLDN18.2 [8] = target: T9, human CLDN18.2; assay: flow cytometry on MKN45-CLDN18.2-high cells; unit taken from the concentration axis
Procedure: (§2) Log-phase HEK293-CLDN18.2 and NUGC4 cells were re-suspended in PBS. After 3× cell wash by using FACS washing buffer (PBS+2% FBS), 100 μl/well diluted hybridoma Abs with a range from 400 nM to 0.002 nM were added into each well for incubation at 4° C. for 30 min. Again, cells were washed 3 times by using FACS washing buffer and then incubated with 100 μl/well goat anti-mIgG-FITC (1:400 dilution) at 4° C. for another 30 min. After a final 3× wash using FACS washing buffer, cells were analyzed by flow Cytometry.

human CLDN18.2 [9] = target: T9, human CLDN18.2; assay: FACS, HEK293-CLDN18.2 cells; binds: FACS on overexpressing HEK293-CLDN18.2 cells
[10] = target: T10, human CLDN18.2-mRFP1, wild-type (human); assay: FACS, transfected HEK293, 10 µg/ml antibody;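 note: antibody binding read by flow cytometry with a FITC-labelled anti-human IgG secondary, gated on RFP-positive cells, each mutant signal expressed against wild-type CLDN18.2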
T10 construct: human CLDN18.2 (amino acid 1-261) fused to mRFP1 (amino acid 1-225), transiently expressed in HEK293 cells; also called wild-type human CLDN18.2-mRFP
Procedure: The transfected HEK293-CLDN18.2 or HEK293-CLDN18.1 cell were resuspended in PBS with 2% BSA at density of 10\hat{ }5/well, 100 μl/well. […] Next, cells were washed 3 times by FACS washing buffer and incubated with 100 μl/well goat anti-hIgG (H+L)-FITC (1:200 dilution) at 4° C. for another 30 min. Finally, cells were washed 3 times by FACS washing buffer and analyzed by Flow Cytometry. To analyze binding to CLDN18.2 transfected cells, the RFP positive cells were used for control gating.

human CLDN18.2 [11] = target: T9, human CLDN18.2; assay: flow cytometry on MKN45-CLDN18.2-medium cells; unit taken from the concentration axis; the fitted value lies far above the highest concentration tested (about 60 ug/ml); the curve lies on the isotype control up to about 7 ug/ml and reaches Mean FITC about 4200 at about 60 ug/ml
Procedure: as §2

human CLDN18.2 [12] = target: T9, human CLDN18.2; assay: flow cytometry on KATOIII cells; unit taken from the concentration axis; the fitted value lies far above the highest concentration tested (about 30 ug/ml); the curve rises only from about 2 ug/ml on, to Mean FITC-A about 43000
human CLDN18.2 [13] = target: T9, human CLDN18.2; assay: flow cytometry on MIA PaCa-2-CLDN18.2 cells (y axis printed as Luminescence); unit taken from the concentration axis
human CLDN18.2 [14] = target: T9, human CLDN18.2; assay: flow cytometry on SNU-601 cells; unit taken from the concentration axis; the fitted value lies far above the highest concentration tested (about 30 ug/ml); the curve rises only from about 2 ug/ml on, to Mean FITC-A about 35000
human CLDN18.2 [15] = target: T9, human CLDN18.2; assay: FACS, HEK293-CLDN18.2 cells
Procedure: as §2

human CLDN18.2 [16] = target: T9, human CLDN18.2; assay: flow cytometry on NUGC4 cells, goat anti-mIgG-FITC
Procedure: as §2

human CLDN18.1 = target: T11, human CLDN18.1 (human, UniProt P56856 1-261); assay: FACS, hybridoma supernatant, HEK293-CLDN18.1 cells
T11 construct: on HEK293-CLDN18.1 cells; also called Claudin-18 splice variant 1; NP_057453.1
T11 sequence (P56856 whole entry, canonical isoform): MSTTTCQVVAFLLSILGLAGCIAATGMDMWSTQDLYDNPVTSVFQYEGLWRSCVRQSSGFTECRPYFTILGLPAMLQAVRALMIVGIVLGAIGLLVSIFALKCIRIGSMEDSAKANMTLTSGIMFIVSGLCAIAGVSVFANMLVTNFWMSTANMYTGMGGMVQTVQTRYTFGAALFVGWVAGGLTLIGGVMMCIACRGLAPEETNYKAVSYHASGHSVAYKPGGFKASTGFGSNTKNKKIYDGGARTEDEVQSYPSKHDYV
Procedure: Log-phase CLDN18.1 expressing HEK293-CLDN18.1 cells were resuspended in PBS at a density of 10\hat{ }5/100 μl per well. After 3× cell wash by using FACS washing buffer (PBS+2% FBS), 100 μl/well hybridoma supernatant was added into each well for incubation at 4° C. for 30 min. Again, cells were washed 3 times by using FACS washing buffer and then incubated with 100 μl/well goat anti-mIgG-FITC (1:400 dilution) at 4° C. for another 30 min. After a final 3× wash using FACS washing buffer, cells were analyzed by flow Cytometry.

T1 sequence (P08637 17-208 F176V limits assumed): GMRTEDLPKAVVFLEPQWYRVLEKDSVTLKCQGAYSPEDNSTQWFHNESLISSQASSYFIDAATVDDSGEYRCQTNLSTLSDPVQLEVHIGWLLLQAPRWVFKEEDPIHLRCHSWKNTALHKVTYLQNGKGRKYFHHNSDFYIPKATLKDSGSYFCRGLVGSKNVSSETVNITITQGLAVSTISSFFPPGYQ
Chain of human C1q (P02745 23-245, chain 1 of 3): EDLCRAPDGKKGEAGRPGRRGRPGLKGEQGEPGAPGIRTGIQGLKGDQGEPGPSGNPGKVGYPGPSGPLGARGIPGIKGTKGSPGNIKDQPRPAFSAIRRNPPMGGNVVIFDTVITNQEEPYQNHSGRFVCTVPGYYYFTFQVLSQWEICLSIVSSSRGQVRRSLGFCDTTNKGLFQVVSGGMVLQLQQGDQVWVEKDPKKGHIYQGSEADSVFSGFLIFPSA
Chain of human C1q (P02746 28-253, chain 2 of 3): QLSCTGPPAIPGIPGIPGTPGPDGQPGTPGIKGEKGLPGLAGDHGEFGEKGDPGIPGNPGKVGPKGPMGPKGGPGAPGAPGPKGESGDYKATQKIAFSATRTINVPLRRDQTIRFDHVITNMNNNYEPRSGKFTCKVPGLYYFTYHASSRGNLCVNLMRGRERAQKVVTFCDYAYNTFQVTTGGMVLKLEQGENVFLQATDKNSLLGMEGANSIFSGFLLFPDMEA
Chain of human C1q (P02747 29-245, chain 3 of 3): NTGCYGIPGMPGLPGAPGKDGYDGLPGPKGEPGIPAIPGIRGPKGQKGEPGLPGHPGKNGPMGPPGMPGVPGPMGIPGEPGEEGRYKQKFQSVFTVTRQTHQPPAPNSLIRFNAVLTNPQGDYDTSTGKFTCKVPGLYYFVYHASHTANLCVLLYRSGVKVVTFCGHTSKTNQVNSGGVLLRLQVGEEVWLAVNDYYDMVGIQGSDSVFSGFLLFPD
T4 sequence (P08637 17-208 limits assumed): as the sequence (P08637 17-208 F176V limits assumed) above, with V160F counted along it
T2 sequence (P55899 24-297 limits assumed, chain 1 of 2): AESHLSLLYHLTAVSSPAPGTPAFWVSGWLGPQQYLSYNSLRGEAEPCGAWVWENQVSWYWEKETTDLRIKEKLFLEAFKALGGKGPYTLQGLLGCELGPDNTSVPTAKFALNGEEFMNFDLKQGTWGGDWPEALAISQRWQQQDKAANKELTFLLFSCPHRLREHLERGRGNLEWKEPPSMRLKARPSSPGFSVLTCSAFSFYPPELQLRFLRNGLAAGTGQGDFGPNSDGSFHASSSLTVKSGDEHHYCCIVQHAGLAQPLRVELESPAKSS
T2 sequence (P61769 21-119 limits assumed, chain 2 of 2): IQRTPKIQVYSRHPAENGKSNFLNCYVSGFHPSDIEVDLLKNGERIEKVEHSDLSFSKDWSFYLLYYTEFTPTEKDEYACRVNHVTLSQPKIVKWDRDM
T5 sequence (Q8SPW2 17-208 limits assumed): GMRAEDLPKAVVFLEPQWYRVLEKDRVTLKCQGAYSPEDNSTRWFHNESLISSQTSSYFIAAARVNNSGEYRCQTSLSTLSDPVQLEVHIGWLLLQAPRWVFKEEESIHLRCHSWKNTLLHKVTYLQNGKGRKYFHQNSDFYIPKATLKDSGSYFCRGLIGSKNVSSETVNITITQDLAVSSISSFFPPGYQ
T7 sequence (P12314 16-288 limits assumed): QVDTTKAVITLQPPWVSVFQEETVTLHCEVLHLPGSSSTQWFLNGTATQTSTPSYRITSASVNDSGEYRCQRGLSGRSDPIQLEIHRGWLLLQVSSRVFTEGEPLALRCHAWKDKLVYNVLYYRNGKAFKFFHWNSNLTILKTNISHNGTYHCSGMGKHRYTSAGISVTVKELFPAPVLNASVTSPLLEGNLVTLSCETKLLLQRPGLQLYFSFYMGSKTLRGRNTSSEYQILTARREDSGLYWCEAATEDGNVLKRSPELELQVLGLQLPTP

B1: 18B10-HaLa-L235V/F243L/R292P/Y300L/P396L (antibody, human IgG1, kappa)
heavy: QVQLVQSGAEVKKPGASVKVSCKASGYTFTGYNMNWVRQAPGQGLEWMGNIDPYYGGTSYNQKFKGRVTMTIDKSTSTVYMELSSLRSEDTAVYYCARMYHGNAFDYWGQGTTVTVSSASTKGPSVFPLAPSSKSTSGGTAALGCLVKDYFPEPVTVSWNSGALTSGVHTFPAVLQSSGLYSLSSVVTVPSSSLGTQTYICNVNHKPSNTKVDKKVEPKSCDKTHTCPPCPAPELVGGPSVFLLPPKPKDTLMISRTPEVTCVVVDVSHEDPEVKFNWYVDGVEVHNAKTKPPEEQYNSTLRVVSVLTVLHQDWLNGKEYKCKVSNKALPAPIEKTISKAKGQPREPQVYTLPPSRDELTKNQVSLTCLVKGFYPSDIAVEWESNGQPENNYKTTPLVLDSDGSFFLYSKLTVDKSRWQQGNVFSCSVMHEALHNHYTQKSLSLSPGK
light: not shown
notes: Fc variant of 18B10-HaLa; also called 18B10-HaLa-VLPYLL; copies: 2 + 2
Human FcγRIIIa-V176 [1]
  ADCC reporter EC50, NUGC4 targets, Jurkat-NFAT-luc-FcγRIIIA-V176 effectors: 9.7 ng/mL
[2]
  binding result: binds
FcγRIV-his
  EC50 (read off the curve): ~0.06 µg/mL
Human FcγRIIIa-V176 [3]
  fold increased binding vs 18B10-HaLa wild-type: 10 fold
Human FcγRIIIa-F176
  fold increased binding vs 18B10-HaLa wild-type: 10 fold
Human FcγRIIIa-V176 [4]
  EC50 (read off the curve): ~0.2 µg/mL
Human C1q
  binding result: binds
Cyno FcγRIII-his
  binding result: binds
Mouse FcγRIIB-his
  binding result: binds
Human FcγRI
  binding result: binds
Mouse FcγRI-his
  binding result: binds

B2: IMAB362 (antibody, human IgG1, V domains shown)
VH: QVQLQQPGAELVRPGASVKLSCKASGYTFTSYWINWVKQRPGQGLEWIGNIYPSDSYTNYNQKFKDKATLTVDKSSSTAYMQLSSPTSEDSAVYYCTRSWRGNSFDYWGQGTTLTVSS
VL: DIVMTQSPSSLTVTAGEKVTMSCKSSQSLLNSGNQKNYLTWYQQKPGQPPKLLIYWASTRESGVPDRFTGSGSGTDFTLTISSVQAEDLAVYYCQNDYSYPFTFGSGTKLEIK
notes: chimeric IgG1 benchmark antibody, expressed according to US2009169547A1; also called IMAB362-analog; IMB362
Human CLDN18.2 [5]
  Kd: 2.58 nM
Human CLDN18.2 [6]
  ADCC EC50 (PBMC effectors, PI staining), NUGC4 cells: 0.54 µg/mL
Human CLDN18.2 [7]
  EC50: 2.47 µg/mL
Human CLDN18.2 [8]
  EC50: 4.05 µg/mL
Human CLDN18.2 [9]
  EC50: 0.42 µg/mL
[10]
  binding percentage vs wild-type CLDN18.2: 100%
Human CLDN18.2 [11]
  EC50: ~16.8 mg/mL
Human CLDN18.2 [12]
  EC50: 18 mg/mL
Human CLDN18.2 [13]
  EC50: 0.66 µg/mL
Human CLDN18.2 [14]
  EC50: 15.3 mg/mL

B3: 12E9 (antibody, V domains shown)
VH: EFQLQQSGPELEKPGASVRISCKTSGYSFTGYNMNWVKQSNGESLEWIGNIDPYYGGTRYNQKFKGKATLTVDKSSSTAYMQLKSLTSEDSAVYYCARSYYGNAFDYWGQGTTLTVSS
VL: DIVMTQSPSSLTVTAGEKVTMSCKSSQNLLNNGNQKNYLTWYQQKPGQPPKLLIYWASTRESGVPDRFTGSGSGTDFILTISSVQAEDLAVYYCQNDYSFPFTFGAGTKLELK
notes: mouse hybridoma antibody; also called hybridoma antibody 12E9
Human CLDN18.2 [15]
  EC50: 0.52 µg/mL
Human CLDN18.2 [16]
  EC50 (read off the curve): ~2 µg/mL
Human CLDN18.1
  binding result: no binding

B4: 26G6 (antibody, V domains shown)
VH: EFQLQQSGPELEKPGASVKISCKTSGYSFTGYNMNWVKQSNGQSLEWIGHIDPYYVTTTYNQKFRGKATLTVDKSSSTAYMQLKSLTSEDSAVYYCARSFYGNAFDYWGQGTTLTVSS
VL: DIVMTQSPSSLTVTAGEKVTMSCKSSQSLFNSGNQKNYLTWYQQKPGQPPKLLIYWASTRESGVPDRFTGSGSGTDFTLTISSVQAEDLAVYYCQNDYSFPFTFGSGTKLEIK
notes: mouse hybridoma antibody; also called hybridoma antibody 26G6
Human CLDN18.2 [15]
  EC50: 0.76 µg/mL
Human CLDN18.2 [16]
  EC50 (read off the curve): ~2 µg/mL
Human CLDN18.1
  binding result: no binding
